Experimental data: patent US20240336672A1

Tests used:
Details in all cases: remark: other sources report otherwise
[1] = target: SARS-CoV-2 RBD (B.1.1.7) domain (SARS-CoV-2); assay: ELISA
[2] = target: SARS-CoV-2 RBD (B.1.351) domain (SARS-CoV-2); assay: ELISA
[3] = target: SARS-CoV-2 RBD (P.1) domain (SARS-CoV-2); assay: ELISA
[4] = target: T1, SARS-CoV-2 Spike ectodomain (tri-S), Wuhan (SARS-CoV-2), P0DTC2; assay: ELISA
[5] = target: SARS-CoV-2 RBD (B.1.351) domain (SARS-CoV-2); assay: ELISA; unit from paragraph 452, none printed in the heatmap
[6] = target: T1, SARS-CoV-2 Spike ectodomain (tri-S), …; assay: tri-S-ACE2 competition ELISA; unit from legend paragraph 348

Binder	OD405nm [1]	OD405nm [2]	OD405nm [3]	OD405nm [4]	EC50 [5] [ng/mL]	IC50 [6] [ng/mL]
Adintrevimab (antibody, V domains shown) VH: EVQLVESGGGLVKPGGSLRLSCAASGFTFSSYYMNWVRQAPGKGLEWVSSISEDGYSTYYPDSLKGRFTISRDSAKNSLYLQMNSLRADDTAVYYCARDFSGHTAWAGTGFEYWGQGTLVTVSS VL: QSVLTQPPSVSGAPGQRITISCTGSSSNIGAGYDVHWYQQLPGTAPKLLIYGSSSRNSGVPDRFSGSKSGTSASLAITGLQAEDEADYYCQSYDSSLSVLYTFGTGTKVTVL	3.4	3.4	3.4	3	7	200
Cilgavimab (antibody, V domains shown) VH: EVQLVESGGGLVKPGGSLRLSCAASGFTFRDVWMSWVRQAPGKGLEWVGRIKSKIDGGTTDYAAPVKGRFTISRDDSKNTLYLQMNSLKTEDTAVYYCTTAGSYYYDTVGPGLPEGKFDYWGQGTLVTVSS VL: not shown	–	3.3	–	–	7	–
